The series can be described thus: Viscosity measurement and state of medium composition (E type viscometer). It is filed as physicochemical. Here is the method: Deacylated gellan gum (KELCOGEL CG-LA, manufactured by SANSHO Co., Ltd.) was suspended in pure water to 0.4% (w/v), and dissolved by stirring with heating at 90° C. This aqueous solution was allowed to cool to room temperature with stirring, and sterilized at 121° C. for 20 min in an autoclave. A 2-fold concentration of DMEM/F-12 medium (manufactured by Aldrich, 50 mL) and sterilization water (47.5 mL) were placed in a 300 mL tall beaker with stirring by a homomixer (3000 rpm) at room temperature, aqueous deacylated gellan gum solution (2.5 mL) was added, and the mixture was continuously stirred for 1 min to prepare a deacylated gellan gum medium composition with a final concentration of 0.01%. Medium compositions added with aqueous deacylated gellan gum solution with final concentrations of 0.02, 0.03 and 0.05% (w/v) were similarly prepared. The viscosity of the medium compositions was measured using an E type viscometer (manufactured by Toki Sangyo Co., Ltd., Viscometer TVE-22 L, standard roter 1°34′×R24) under 37° C. condition at 100 rpm for 5 min.
The medium compositions prepared above were subjected to a suspension test of HeLa cell spheres and a viscosity measurement, in the same manner as with the deacylated gellan gum-containing medium. The viscosity of 1.0% (w/v) methylcellulose was measured at 50 rpm due to the measurement range of the apparatus.
In the same manner as in Reference Experimental Example 2, spheres of HeLa cells were formed, and several tens of the spheres were added to each medium (1 mL) prepared above, the mixture was stood still at 37° C. for 1 hr, and the suspended state of the sphere cells was visually observed. […] Furthermore, it was confirmed that addition of an equal amount of the medium to the cell suspension and centrifugation (300 to 400G, for 5 min) thereof result in sedimentation and recovery of the spheres of HeLa cells.
By a method similar to that for the polysaccharide mixture of Reference Experimental Example 9, DMEM/F-12 media containing deacylated gellan gum at a final concentration of 0.005, 0.01% (w/v) and other polysaccharide were prepared. The final concentration of polysaccharide was set to 0.1% (w/v) for xanthan gum, sodium alginate, locust bean gum, 0.2% (w/v) for methylcellulose, and 0.05% (w/v) for K-carageenan and diutan gum. The state of each medium composition and the viscosity measured by a method similar to that in Analysis Example 1 are shown in Tables 11-16.

On to collagen, for which the state entry reads like this: (concentration 0.01 %(w/v) in DMEM/F-12) “liquid”; (concentration 0.05 %(w/v) in DMEM/F-12) “liquid/solid (gel)”; (concentration 0.1 %(w/v) in DMEM/F-12) “solid (gel)”; (concentration 0.2 %(w/v) in DMEM/F-12) “solid (gel)”. In addition, the viscosity (concentration 0.01 %(w/v) in DMEM/F-12, 37° C., 100 rpm) is 1.18 mPa · s.

The values above are taken from US20230383245A1, “CULTURE MEDIUM COMPOSITION” (NISSAN CHEMICAL CORPORATION, priority 2014, published 2023).
